B1: Lipopolysaccharide export system protein LptC (Escherichia coli (strain K12)), P0ADV9 (parent)
chain: MSKARRWVIIVLSLAVLVMIGINMAEKDDTAQVVVNNNDPTYKSEHTDTLVYNPEGALSYRLIAQHVEYYSDQAVSWFTQPVLTTFDKDKIPTWSVKADKAKLTNDRMLYLYGHVEVNALVPDSQLRRITTDNAQINLVTQDVTSEDLVTLYGTTFNSSGLKMRGNLRSKNAELIEKVRTSYEIQNKQTQP
partner: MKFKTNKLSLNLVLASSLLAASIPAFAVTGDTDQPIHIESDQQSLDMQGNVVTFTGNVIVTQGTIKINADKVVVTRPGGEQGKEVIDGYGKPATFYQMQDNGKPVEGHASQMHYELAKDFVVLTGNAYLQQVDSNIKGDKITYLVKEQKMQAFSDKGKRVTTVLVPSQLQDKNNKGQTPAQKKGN

Variants of: B1
Conditions: with lpta_ecoli lptA

With G153R as the variant, how does the “effect of a mutation on the interaction” value read?
Its value is “disrupting interaction”.

Reference: IntAct's records for PubMed 21169485
